Experimental data as given in article PMC3524116.

Biological target: Recombinant His6-tagged UVI31+ protein from C. reinhardtii (C. reinhardtii)
Experiment: SEC; gel filtration on a Sephadex G75 column in 50 mM sodium phosphate (pH 7.6), 50 mM NaCl; major peak at 87 ml (monomer), small hump at 68-75 ml (dimer)

Recombinant His6-tagged UVI31+ protein from C. reinhardtii (natural protein)
stoichiometry N: 2
